Tests used:
[1] = system: Immunoglobulin G (total IgG) (Homo sapiens); assay: filter
[2] = system: Immunoglobulin G (total IgG); assay: pulldown; details: SB18, 37C
[3] = n (P) = NapdU, considered no binding
[4] = n (P) = NapdU, SB18, 5 mM MgCl2, 37 C, sequence identical to _21 to _25
[5] = n (P) = NapdU, SB18, 5 mM MgCl2, 37 C
[6] = n (P) = 2NapdU, SB18, 5 mM MgCl2, 37 C
[7] = n (P) = 2NapdU, considered no binding

In the case of “ATGGCGAACTCCCTGAATGCTCTTGTC [14125-144_37]”, the Kd [1, 3] is reported as greater than 1000 nM.

Sequence “GGTACGATTTTCAGTTGGATCCAGTACCTGG [5406-56_24]” has a Kd [1, 4] of 5.1 nM.

“ATGGCGAACTCCCTGAATGCTCTTGTCT [14125-144_33]” gave a Kd [1, 3] greater than 1000 nM.

“CCTCCATACGGTACGATTTTCAGTTGGATCCAGTAC [5406-56_18]” was tested, and the Kd ([2]; P = NapdU, bead partitioning) was 42.2 nM.

For “ATGGCGAACTCCCTGAATGCTCTTGTCTTA [14125-144_25]”, the Kd [1, 5] was 7.55 nM.

For “TACGATTTTCAGTTGGATCCAGTACCTGG [5406-56_26]”, the Kd ([2]; P = NapdU, bead partitioning) was 64.3 nM.

“GTACGATTTTCAGTTGGATCCAGTACCT [5406-56_37]” showed a Kd ([2]; P = NapdU, bead partitioning) of 9.44 nM.

“TACGATTTTCAGTTGGATCCAGTACCT [5406-56_38]” gave a Kd ([2]; P = NapdU, bead partitioning) greater than 1000 nM.

“TGGCGAACTCCCTGAATGCTCTTGTCTTAA [14125-144_22]” showed a Kd ([2]; P = NapdU, bead partitioning) of 3.55 nM.

Sequence “CGGTACGATTTTCAGTTGGATCCAGTACCT [5406-56_35]” has a Kd [1, 5] of 3.42 nM.

For “TACGGTACGATTTTCAGTTGGATCCAGTACCTG [5406-56_27]”, the Kd [1, 5] was 5.56 nM.

“GCGGTTACCTTGTAGGCGATTATGGGCAG [5334-8_25]” showed a Kd ([2]; P = 2NapdU, bead partitioning) of 5.83 nM.

“TGCGGTTACCTTGTAGGCGATTATGGGCAG [5334-8_24]” gave a Kd [1, 6] of 5.51 nM.

Sequence “AGACTGCGGTTACCTTGTAGGCGATTATGG [5334-8_31]” has a Kd ([2]; P = 2NapdU, bead partitioning) greater than 1000 nM.

“CGGCACTCCACATCCAAGACTGCGGTTACCTTGT [5334-8_19]” showed a Kd ([2]; P = 2NapdU, bead partitioning) greater than 1000 nM.

AGACTGCGGTTACCTTGTAGGCGATT [5334-8_33] gave a Kd [1, 7] greater than 1000 nM.

In the case of “AGACTGCGGTTACCTTGTAGGCGATTATGGG [5334-8_30]”, the Kd ([2]; P = 2NapdU, bead partitioning) is reported as 80.9 nM.

Sequence “GGCGAACTCCCTGAATGCTCTTGTCTTA [14125-144_27]” has a Kd ([2]; P = NapdU, bead partitioning) greater than 1000 nM.

With “GTACGATTTTCAGTTGGATCCAGTACCTGGCTGGAGAGAA [5406-56_8]” the Kd ([2]; P = NapdU, bead partitioning) was 78.1 nM.

For “AGACTGCGGTTACCTTGTAGGCGATTATGGGCAG [5334-8_11]”, the Kd ([2]; P = 2NapdU, bead partitioning) was 4.69 nM.

With “TCCAAGACTGCGGTTACCTTGTAGGCGATTATGGGCAG [5334-8_9]” the Kd [1, 6] was 8.38 nM.

“CGGTACGATTTTCAGTTGGATCCAGTACCTGG [5406-56_23]” showed a Kd [1, 4] of 5.48 nM.

Sequence TACGATTTTCAGTTGGATCCAGTAC [5406-56_50] has a Kd ([2]; P = NapdU, 25-mer core) of 18.8 nM.

For “GCCTGCACGATGGCGAACTCCCTGAATGCTCTTG [14125-144_19]”, the Kd [1, 3] was greater than 1000 nM.

“GCACGATGGCGAACTCCCTGAATGCTCTTGTCTTAAGTCCCCAACA [14125-144_5]” was tested, and the Kd [1, 5] was 8.87 nM.

In the case of “CGGCACTCCACATCCAAGACTGCGGTTACCTTGTAG [5334-8_18]”, the Kd [1, 7] is reported as greater than 1000 nM.

With “GGCGAACTCCCTGAATGCTCTTGTCT [14125-144_35]” the Kd [1, 3] was greater than 1000 nM.

“GGCGAACTCCCTGAATGCTCTTGTCTT [14125-144_31]” was tested, and the Kd ([2]; P = NapdU, bead partitioning) was greater than 1000 nM.

“CCTCCATACGGTACGATTTTCAGTTGGATCCAGTACCTGGCTGG [5406-56_14]” showed a Kd ([2]; P = NapdU, bead partitioning) of 3 nM.

“GGCGAACTCCCTGAATGCTCTTGTC [14125-144_39]” showed a Kd [1, 3] greater than 1000 nM.

“CGGCACTCCACATCCAAGACTGCGGTTACCTTGTAGGCGATTAT [5334-8_14]” gave a Kd [1, 7] greater than 1000 nM.

“CGGCACTCCACATCCAAGACTGCGGTTACCTTGTAGGCGATTATGG [5334-8_13]” showed a Kd ([2]; P = 2NapdU, bead partitioning) greater than 1000 nM.

“CCTCCATACGGTACGATTTTCAGTTGGATCCAGT [5406-56_19]” showed a Kd ([2]; P = NapdU, bead partitioning) greater than 1000 nM.

“CGGTACGATTTTCAGTTGGATCCAGTAC [5406-56_47]” was tested, and the Kd [1, 5] was 5.7 nM.

“CGGCACTCCACATCCAAGACTGCGGTTACCTTGTAGGCGATTATGGGC [5334-8_12]” was tested, and the Kd ([2]; P = 2NapdU, bead partitioning) was 25.8 nM.

“GCCTGCACGATGGCGAACTCCCTGAATGCTCTTGTCTTAAGTCCCC [14125-144_13]” gave a Kd [1, 5] of 14.3 nM.

With “TCCATACGGTACGATTTTCAGTTGGATCCAGTACCTGGCTGGAGAGAA [5406-56_4]” the Kd ([2]; P = NapdU, bead partitioning) was 3.11 nM.

“CCTCCATACGGTACGATTTTCAGTTGGATCCAGTACCTGGCTGGAGAG [5406-56_12]” showed a Kd ([2]; P = NapdU, bead partitioning) of 2.88 nM.

In the case of “ACGGTACGATTTTCAGTTGGATCCAGTACCTGG [5406-56_22]”, the Kd ([1]; n (P) = NapdU, Zorbax bead partitioning, SB18, 5 mM MgCl2, 37 C, printed sequence identical to _21 to _25, length unclear) is reported as 4.93 nM.

Sequence “GATTTTCAGTTGGATCCAGTACCTGGCTGGAGAGAA [5406-56_10]” has a Kd ([2]; P = NapdU, bead partitioning) greater than 1000 nM.

“ACTGCGGTTACCTTGTAGGCGATTATGGGCAG [5334-8_22]” was tested, and the Kd [1, 6] was 5.77 nM.

Work on “CGGTTACCTTGTAGGCGATTATGGGCAG [5334-8_26]” yielded a Kd ([2]; P = 2NapdU, bead partitioning) greater than 1000 nM.

For “TACGGTACGATTTTCAGTTGGATCCAGTACC [5406-56_39]”, the Kd [1, 5] was 6.74 nM.

“GATGGCGAACTCCCTGAATGCTCTTGTCTTAAGTCCCCAACA [14125-144_7]” was tested, and the Kd [1, 5] was 6.96 nM.

For “GGTACGATTTTCAGTTGGATCCAGTACCT [5406-56_36]”, the Kd [1, 5] was 3.44 nM.

GGTTACCTTGTAGGCGATTATGGGCAG [5334-8_27] was tested, and the Kd ([2]; P = 2NapdU, bead partitioning) was 279 nM.

In the case of “GCACTCCACATCCAAGACTGCGGTTACCTTGTAGGCGATTATGGGCAG [5334-8_4]”, the Kd ([2]; P = 2NapdU, bead partitioning) is reported as 17.3 nM.

With “GGCGAACTCCCTGAATGCTCTTGTCTTAA [14125-144_23]” the Kd ([2]; P = NapdU, bead partitioning) was greater than 1000 nM.

“TGGCGAACTCCCTGAATGCTCTTGTCT [14125-144_34]” was tested, and the Kd ([2]; P = NapdU, bead partitioning) was greater than 1000 nM.

With “CATACGGTACGATTTTCAGTTGGATCCAGTACCTGGCTGGAGAGAA [5406-56_5]” the Kd ([2]; P = NapdU, bead partitioning) was 7.91 nM.

With “ACGATGGCGAACTCCCTGAATGCTCTTGTCTTAAGTCCCCAACA [14125-144_6]” the Kd ([2]; P = NapdU, bead partitioning) was 7.49 nM.

TACGATTTTCAGTTGGATCCAGTACC [5406-56_44] was tested, and the Kd ([2]; P = NapdU, bead partitioning) was 36.2 nM.

Sequence GTACGATTTTCAGTTGGATCCAGTAC [5406-56_49] has a Kd ([2]; P = NapdU, bead partitioning) of 17.6 nM.

Work on “CCTCCATACGGTACGATTTTCAGTTGGATCCAGTACCTGG [5406-56_16]” yielded a Kd ([2]; P = NapdU, bead partitioning) of 2.58 nM.

“CCTCCATACGGTACGATTTTCAGTTGGATCCAGTACCTGGCT [5406-56_15]” showed a Kd ([2]; P = NapdU, bead partitioning) of 4.64 nM.

In the case of “TACGATTTTCAGTTGGATCCAGTACCTG [5406-56_32]”, the Kd ([2]; P = NapdU, bead partitioning) is reported as 75.4 nM.

“CCTCCATACGGTACGATTTTCAGTTGGATCCAGTACCT [5406-56_17]” gave a Kd ([2]; P = NapdU, bead partitioning) of 4.14 nM.

In the case of “GCCTGCACGATGGCGAACTCCCTGAATGCTCTTGTCTT [14125-144_17]”, the Kd ([2]; P = NapdU, bead partitioning) is reported as 15.4 nM.

“CCTCCATACGGTACGATTTTCAGTTGGATCCAGTACCTGGCTGGAG [5406-56_13]” showed a Kd ([2]; P = NapdU, bead partitioning) of 2.61 nM.

“TCCACATCCAAGACTGCGGTTACCTTGTAGGCGATTATGGGCAG [5334-8_6]” was tested, and the Kd ([2]; P = 2NapdU, bead partitioning) was 7.89 nM.

Work on “GCCTGCACGATGGCGAACTCCCTGAATGCTCTTGTC [14125-144_18]” yielded a Kd ([2]; P = NapdU, bead partitioning) greater than 1000 nM.

For “CGGTACGATTTTCAGTTGGATCCAGTACC [5406-56_41]”, the Kd ([2]; P = NapdU, bead partitioning) was 2.74 nM.

Sequence “ACGATTTTCAGTTGGATCCAGTACCTGGCTGGAGAGAA [5406-56_9]” has a Kd ([2]; P = NapdU, bead partitioning) greater than 1000 nM.

For “GAACTCCCTGAATGCTCTTGTCTTAAGTCCCCAACA [14125-144_10]”, the Kd ([2]; P = NapdU, bead partitioning) was greater than 1000 nM.

For “CTGCGGTTACCTTGTAGGCGATTATGGGCAG [5334-8_23]”, the Kd ([2]; P = 2NapdU, bead partitioning) was 4.04 nM.

“TGGCGAACTCCCTGAATGCTCTTGTCTTA [14125-144_26]” was tested, and the Kd ([2]; P = NapdU, bead partitioning) was 5.03 nM.

With “CGGTACGATTTTCAGTTGGATCCAGTACCTGGCTGGAGAGAA [5406-56_7]” the Kd ([2]; P = NapdU, bead partitioning) was 13 nM.

Work on “GCCTGCACGATGGCGAACTCCCTGAATGCTCTTGTCTTAAGT [14125-144_15]” yielded a Kd ([2]; P = NapdU, bead partitioning) of 14.6 nM.

“GTACGATTTTCAGTTGGATCCAGTACCTG [5406-56_31]” showed a Kd ([2]; P = NapdU, bead partitioning) of 14.8 nM.

In the case of “GCGAACTCCCTGAATGCTCTTGTCTTAAGTCCCCAACA [14125-144_9]”, the Kd ([2]; P = NapdU, bead partitioning) is reported as greater than 1000 nM.

“TGGCGAACTCCCTGAATGCTCTTGTC [14125-144_38]” gave a Kd ([2]; P = NapdU, bead partitioning) greater than 1000 nM.

“AGACTGCGGTTACCTTGTAGGCGATTATGGGC [5334-8_29]” showed a Kd ([2]; P = 2NapdU, bead partitioning) of 15.6 nM.

“CGGCACTCCACATCCAAGACTGCGGTTACCTTGTAGGCGATT [5334-8_15]” gave a Kd ([2]; P = 2NapdU, bead partitioning) greater than 1000 nM.

“TTTTCAGTTGGATCCAGTACCTGGCTGGAGAGAA [5406-56_11]” showed a Kd ([2]; P = NapdU, bead partitioning) greater than 1000 nM.

“TACGGTACGATTTTCAGTTGGATCCAGTACCTGG [5406-56_21]” gave a Kd ([2]; P = NapdU, table prints a shorter sequence than the listing for SEQ 18) of 8.13 nM.

With “TACGGTACGATTTTCAGTTGGATCCAGTACCTGGCTGGAGAGAA [5406-56_6]” the Kd ([2]; P = NapdU, bead partitioning) was 9.05 nM.

Sequence “TGGCGAACTCCCTGAATGCTCTTGTCTTAAGTCCCCAACA [14125-144_8]” has a Kd ([2]; P = NapdU, bead partitioning) of 6.82 nM.

Reference: patent US20210317456
